Source: paper PMC5199234

Assays:
[1] = molecular target: T1, U1A N-terminal RRM (native) (UniProt P09012 1-102); assay: SPR
[2] = molecular target: T1, U1A N-terminal RRM (native); assay: SPR; remark: listed apart in the source

T1 sequence (P09012 1-102): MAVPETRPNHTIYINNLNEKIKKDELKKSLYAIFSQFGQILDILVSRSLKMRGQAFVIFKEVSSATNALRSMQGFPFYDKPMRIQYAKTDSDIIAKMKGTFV

AGCUUAUCCAUUGCACUCCGGAUGAGCU (structured_RNA) [U1hpII]
Kd [1]: ~0.04 nM

GGCAGAUCUGAGCCUGGGAGCUCUCUGCC (structured_RNA) [TAR]
binding result [2]: no binding
